The text below walks through data of US20230210940A1 (published 2023).

This test deals with T1, CD13 (human, UniProt P15144 2-967).
T1 construct: whole, on cells; Endogenous CD13 on the cell membrane, detected with PE-labeled anti-human CD13 antibody clone WM-15; also called human CD13
Briefly: Example 2 incubated with HT-1080 cells, anti-FITC immunoprecipitation, Western blot with anti-CD13 antibody WM-15. As to the method: Example 2 (80 μg/400 μL) reacted to HT-1080 cells (40 million cells) at 4° C. for 2 hours. The cells were then washed with PBS, and centrifuged. The centrifuged cells were dissolved in 1,000 μL of IP Lysis/Wash buffer (Thermo Fisher Scientific) with Halt Protease & Phosphatase inhibitor Single-Use Cocktail, ETDA-Free (Thermo Fisher Scientific) (10 μL) at 4° C. for 5 minutes. It was centrifuged at 4° C. for 10 minutes and the supernatant was collected. The supernatant was adjusted to be 1 mg in amount of protein and 80 μL of A/G agarose was added to it. The mixture was stirred at 4° C. for 1 hour and then centrifuged for 1 minute. Thus, a pre-treatment solution was obtained. 10 μg of IgG Fraction Monoclonal Mouse Anti-Fluorescein (FITC) (Jackson ImmunoResearch) or 10 μg of Mouse IgG Isotype Control (Thermo Fisher Scientific) was each added to the pre-treatment solution (1 mg/600 μL), and the mixtures were shaken at 4° C. overnight. Subsequently, 20 μL of A/G agarose was added and the mixtures were shaken at 4° C. for 2 hours. The mixtures were washed three times with the wash buffer described above and 20 μL of 2×Non-reducing Lane Marker Sample Buffer (Thermo Fisher Scientific) was added to the A/G agaroses. […]
The 10% solution used in immunoprecipitation was loaded to the left lane of FIG. 3. […] CD13 was not detected on the right lane, but CD 13 was detected on the center lane.

No end group written: not given here. *: point of attachment. FITC = O=C1OC2(c3ccc(O)cc3Oc3cc(O)ccc32)c2ccc(NC(=S)*)cc21; Ahx = NCCCCCC(=O)O

T1 sequence (P15144 2-967): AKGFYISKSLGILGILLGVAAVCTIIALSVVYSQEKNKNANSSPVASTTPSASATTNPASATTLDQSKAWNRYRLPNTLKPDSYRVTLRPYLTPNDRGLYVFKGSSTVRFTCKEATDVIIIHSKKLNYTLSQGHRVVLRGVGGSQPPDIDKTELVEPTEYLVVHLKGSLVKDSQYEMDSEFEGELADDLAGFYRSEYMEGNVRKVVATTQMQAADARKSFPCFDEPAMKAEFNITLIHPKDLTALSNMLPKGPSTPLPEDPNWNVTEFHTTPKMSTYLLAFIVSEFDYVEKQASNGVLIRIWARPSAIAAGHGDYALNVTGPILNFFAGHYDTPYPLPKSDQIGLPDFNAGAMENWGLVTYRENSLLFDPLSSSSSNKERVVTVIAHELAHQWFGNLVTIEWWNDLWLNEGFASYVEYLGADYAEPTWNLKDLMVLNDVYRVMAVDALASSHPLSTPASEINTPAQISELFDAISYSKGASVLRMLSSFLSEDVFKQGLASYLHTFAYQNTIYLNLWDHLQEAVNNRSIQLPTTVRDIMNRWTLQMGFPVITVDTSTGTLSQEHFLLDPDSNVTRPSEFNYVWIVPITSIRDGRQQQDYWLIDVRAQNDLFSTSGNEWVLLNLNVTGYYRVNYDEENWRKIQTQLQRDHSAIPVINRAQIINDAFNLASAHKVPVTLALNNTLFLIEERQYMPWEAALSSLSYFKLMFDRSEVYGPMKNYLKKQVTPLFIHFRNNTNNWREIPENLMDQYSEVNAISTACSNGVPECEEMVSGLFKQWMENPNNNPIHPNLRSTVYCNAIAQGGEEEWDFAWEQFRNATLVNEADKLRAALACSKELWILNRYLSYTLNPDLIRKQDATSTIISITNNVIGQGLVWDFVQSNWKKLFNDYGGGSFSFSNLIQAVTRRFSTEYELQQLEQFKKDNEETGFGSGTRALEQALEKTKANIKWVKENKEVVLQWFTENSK

B1: Example 2 (peptide of SEQ ID NO: 1 labeled with FITC; SEQ ID NO: 32 with a FITC sequence added to the N-terminus thereof) (peptide)
peptide: {FITC-Ahx}-KDNRGNLLQCVCTGNGRGEWKC
modifications: cysteine pairing not given here
In the case of B1, the binding result is listed as “binds”.
